Positions count from the first letter of the chain named.
B1: T32_Kan[209]_top1 (AEEEAARFAALLAALP-GSK-ip4_mutG), purified peptide (designed binder)
peptide: AEEEAARFAALLAALPGSKWARLARRTAGAGGVTLNGAG
notes: designed N-terminal extension; linker; ip4_mutG; source: E. coli BL21(DE3) Star, purified (Ni-NTA, SUMO protease, Resource RPC, Superdex 30); not shown: His6, N-terminal, cleaved; SUMO, N-terminal, cleaved
B2: Kan[348]_top2 (AAAERARFAALLAKLP-GSK-ip4_mutG), purified peptide (designed binder)
peptide: B1 peptide with E2A, E3A, A5R, A14K
notes: as for B1
B3: Kan[348]_top1 (SAAARWAAALAALP-GSK-ip4_mutG), purified peptide (designed binder)
peptide: SAAARWAAALAALPGSKWARLARRTAGAGGVTLNGAG
notes: as for B1
B4: ip4_mutG (peptide)
peptide: WARLARRTAGAGGVTLNGAG
notes: also called constant C-terminal scaffold

biological target: T1, Recombinant human ASF1AN (residues 1 to 156) (human, UniProt Q9Y294 1-156); test: ITC; VP-ITC, 20 °C, 50 mM tris-HCl pH 7.5; binder injected into the ASF1 solution; One Set of Sites model; duplicate; conditions: both partners purified
T1 construct: N-terminal domain of human ASF1A, UniProt Q9Y294, residues 1 to 156; Unlabeled for ITC; uniformly 15N- and/or 15N-13C-labeled for NMR; Made from pETM30 with a TEV cleavage site; also called hASF1AN; 15N-ASF1AN; source: E. coli, purified (glutathione agarose, TEV cleavage, Ni-NTA flow-through, Resource Q); not shown: His6, N-terminal, cleaved; GST, N-terminal, cleaved
T1 sequence (Q9Y294 1-156): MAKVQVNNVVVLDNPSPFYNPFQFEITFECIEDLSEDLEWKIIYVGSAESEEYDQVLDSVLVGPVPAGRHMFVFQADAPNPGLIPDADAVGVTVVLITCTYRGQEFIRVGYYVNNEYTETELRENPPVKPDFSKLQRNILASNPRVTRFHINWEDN

Row | Kd | Binder
1 | 152 ± 25 nM | B1
2 | 581 ± 98 nM | B2
3 | 235 ± 26 nM | B3
4 | 10600 ± 1000 nM | B4

From publication PMC13199644, “Optimized Quantitative Bacterial Two-Hybrid (qB2H) for Protein–Protein Interaction Assessment” (Computational and Structural Biotechnology Journal, 2026)
